Assay results published in paper PMC9160355.

Target: Rho WT (Escherichia coli) (UniProt P0AG30)
Experiment: EMSA
Conditions: 25 mM Tris-HCl pH 8.0, 5 mM MgCl2, 50 mM KCl, 1 mM DTT, 0.1 mg/ml BSA; 5 nM RNA, 0-50 nM Rho; 37 °C 5 min; 4% native gel at 4 °C

Sequence of Rho WT (Escherichia coli) (P0AG30 whole entry): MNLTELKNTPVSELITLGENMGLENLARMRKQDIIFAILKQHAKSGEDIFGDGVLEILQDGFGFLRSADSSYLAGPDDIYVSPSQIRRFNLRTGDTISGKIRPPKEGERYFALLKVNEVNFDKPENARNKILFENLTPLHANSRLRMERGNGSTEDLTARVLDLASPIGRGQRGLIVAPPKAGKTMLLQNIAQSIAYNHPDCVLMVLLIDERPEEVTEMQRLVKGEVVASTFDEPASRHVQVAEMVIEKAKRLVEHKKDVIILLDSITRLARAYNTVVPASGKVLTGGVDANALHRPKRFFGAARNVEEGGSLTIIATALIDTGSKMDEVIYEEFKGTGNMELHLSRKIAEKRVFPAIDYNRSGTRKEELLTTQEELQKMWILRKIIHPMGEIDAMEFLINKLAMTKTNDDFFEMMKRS

| Substance | Kd [nM] |
| --- | --- |
| GGGAGAGCUGCUUGUUUAAAGCUGACUGGUUUUAUUGGAAUAGUGAAAUAGUCAACAUCAUACAUUAUAACAUCAGUUACUUUUCCACAAAGAAACUAAUCCAUUUAAGCGAAUAUCUCUGCACCUAAUAGUUAUAAAUGCCAUUUAACAGCCAGUUAUAGUACCACUUGAAACUAUAUUACCAACAAUAAUUAAUAGCUUUCGUAACAAUUUCCUUAUCUUUAAUUUGUAUUUUGCUAAGAUUUAUCUUAUGCUCACAAGUCGUAUUUCCAGAGGGGGAUAG [gfcA terminator RNA] | 19.9 |
| sodA terminator RNA | 9.99 |
| trac (rac) terminator RNA | 3.08 |
| ydhQ terminator RNA | 16.4 |
| dmsA terminator RNA | 16.1 |
| yagM terminator RNA | 11.8 |
| setC terminator RNA | 11.5 |
| gntX terminator RNA | 23.2 |
| ycfJ terminator RNA | 18.5 |
| gfcA terminator RNA | 19.9 |
| ydeT terminator RNA | 16.3 |
